Test results published in paper PMC7263589, “Integration of phage and yeast display platforms: A reliable and cost effective approach for binning of peptides as displayed on-phage” (PLoS ONE, 2020).
Bridge positions count the residues as written; N and C are the ends. Ends that are not written are not given here.

Key:
Conditions in all cases: both partners purified
IL-23-HIS = biological target: T1, IL-23-HIS (human, UniProt Q9NPF7 20-189; P29460 23-328); test: SPR; competition SPR, 25°C; IL-23R-Fc-AVI (<1000 RU) captured on Protein-A; 20 nM IL-23 mixed with one concentration of peptide or cold IL-23R injected 30 s; 10 mM HEPES pH 7.5, 150 mM NaCl, 0.005% P20, 1% BSA; n = 1
T1 construct: IL-23 p19 subunit, human; IL-12/IL-23 p40 subunit, human; also called IL-23 only; IL-23 protein
T1 sequence (looked up) 1: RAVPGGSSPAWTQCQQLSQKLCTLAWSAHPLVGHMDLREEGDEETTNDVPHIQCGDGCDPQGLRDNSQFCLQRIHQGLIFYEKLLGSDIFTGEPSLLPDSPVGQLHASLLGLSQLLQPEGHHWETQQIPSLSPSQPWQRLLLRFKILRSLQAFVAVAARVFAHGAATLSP
T1 sequence (looked up) 2: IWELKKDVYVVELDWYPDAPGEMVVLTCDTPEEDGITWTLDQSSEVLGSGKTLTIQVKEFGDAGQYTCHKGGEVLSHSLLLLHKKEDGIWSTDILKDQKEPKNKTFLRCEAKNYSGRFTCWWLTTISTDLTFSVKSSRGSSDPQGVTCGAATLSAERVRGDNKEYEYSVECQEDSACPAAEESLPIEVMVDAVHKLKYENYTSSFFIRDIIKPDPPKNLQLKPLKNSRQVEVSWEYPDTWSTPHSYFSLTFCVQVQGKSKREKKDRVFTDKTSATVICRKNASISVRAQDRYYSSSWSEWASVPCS

[1] = biological target: T2, IL-23 (heterodimer of the p19 and p40 subunits), protein for crystallization (human, UniProt Q9NPF7 20-189; P29460 23-328, Two N-Acetylglucosamine sugars modeled at Asn200); test: crystal structure; IL-23:peptide mixture, 1:1 molar ratio, ~16 mg/mL; sitting-drop vapor diffusion at 8°C; 100 mM Hepes pH 7, 17% w/v PEG 3350, 150 mM potassium nitrate; 2.7 Å, space group P212121
T2 construct: Interleukin-23 subunit alpha (p19), human; Interleukin-12 subunit beta (p40), human; attempts were made to limit glycosylation; Multiple flexible loops are missing from the model; also called hu IL-23
T2 sequence (looked up) 1: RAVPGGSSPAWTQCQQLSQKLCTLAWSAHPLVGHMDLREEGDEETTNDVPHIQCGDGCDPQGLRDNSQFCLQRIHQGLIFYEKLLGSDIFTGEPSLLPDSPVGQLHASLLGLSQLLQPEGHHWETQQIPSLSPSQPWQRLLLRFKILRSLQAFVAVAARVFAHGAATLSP
T2 sequence (looked up) 2: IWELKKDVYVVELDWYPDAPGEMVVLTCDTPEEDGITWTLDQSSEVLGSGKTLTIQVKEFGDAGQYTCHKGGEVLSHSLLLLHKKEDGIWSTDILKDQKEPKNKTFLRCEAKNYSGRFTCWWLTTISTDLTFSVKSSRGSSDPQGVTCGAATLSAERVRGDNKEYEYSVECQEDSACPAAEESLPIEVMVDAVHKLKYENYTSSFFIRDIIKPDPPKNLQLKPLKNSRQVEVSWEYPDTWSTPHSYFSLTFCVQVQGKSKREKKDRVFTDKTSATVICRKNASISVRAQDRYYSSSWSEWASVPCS

[2] = biological target: T3, IL-23 p40 subunit (as in the crystallized IL-23) (human, UniProt P29460 23-328, Two N-Acetylglucosamine sugars modeled at Asn200); test: as above
T3 construct: Interleukin-12 subunit beta (p40), human; Chain of Wm1, written on its own for the contacts seen in the structure
T3 sequence (looked up): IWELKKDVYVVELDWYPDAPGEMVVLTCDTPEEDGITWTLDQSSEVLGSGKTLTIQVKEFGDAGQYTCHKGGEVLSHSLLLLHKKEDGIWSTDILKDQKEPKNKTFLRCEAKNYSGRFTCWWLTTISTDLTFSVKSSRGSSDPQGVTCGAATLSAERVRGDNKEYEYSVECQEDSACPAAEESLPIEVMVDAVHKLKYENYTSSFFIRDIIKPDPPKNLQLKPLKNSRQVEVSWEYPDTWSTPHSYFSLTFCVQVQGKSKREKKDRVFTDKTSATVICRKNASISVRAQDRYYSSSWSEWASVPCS

B1: IL-23R-Fc-AVI (Fc fusion, UniProt Q5VWK5 24-355, looked up)
chain: GITNINCSGHIWVEPATIFKMGMNISIYCQAAIKNCQPRKLHFYKNGIKERFQITRINKTTARLWYKNFLEPHASMYCTAECPKHFQETLICGKDISSGYPPDIPDEVTCVIYEYSGNMTCTWNAGKLTYIDTKYVVHVKSLETEEEQQYLTSSYINISTDSLQGGKKYLVWVQAANALGMEESKQLQIHLDDIVIPSAAVISRAETINATVPKTIIYWDSQTTIEKVSCEMRYKATTNQTWNVKEFDTNFTYVQQSEFYLEPNIKYVFQVRCQETGKRYWQPWSSLFFHKTPETVPQVTSKAFQHDTWNSGLTVASISTGHLTSDNRGDIG
notes: IL-23 receptor (IL-23R); also called IL-23R sensor
- binding result (IL-23-HIS): binds

B2: peptide 23-652 (peptide)
peptide: DTLTKSFCYFGTWCQMYGST
modifications: disulfide 8-14
notes: selected from a cyclic peptide phage library against IL-23; residues 4-18 are ordered in the structure; also called FGT/FGL-motif containing peptide; source: synthetic peptide (CPC Scientific)
- binding result [1]: binds

B3: IL-23 p19 subunit (as in the crystallized IL-23) (natural protein, human, UniProt Q9NPF7 20-189, looked up)
chain: RAVPGGSSPAWTQCQQLSQKLCTLAWSAHPLVGHMDLREEGDEETTNDVPHIQCGDGCDPQGLRDNSQFCLQRIHQGLIFYEKLLGSDIFTGEPSLLPDSPVGQLHASLLGLSQLLQPEGHHWETQQIPSLSPSQPWQRLLLRFKILRSLQAFVAVAARVFAHGAATLSP
notes: Interleukin-23 subunit alpha (p19), human; Chain of Wm1, written on its own for the contacts seen in the structure
- binding result [2]: binds
